# Assay results taken from publication PMC2582393 (Developmental cell, 2008).
# Numbering of substitutions follows the chain as printed.
# T1: GST-CDC-48.3 full-length (FL), amino acids 1-724 (C. elegans, UniProt Q21222 1-724)
# T1 sequence (looked up): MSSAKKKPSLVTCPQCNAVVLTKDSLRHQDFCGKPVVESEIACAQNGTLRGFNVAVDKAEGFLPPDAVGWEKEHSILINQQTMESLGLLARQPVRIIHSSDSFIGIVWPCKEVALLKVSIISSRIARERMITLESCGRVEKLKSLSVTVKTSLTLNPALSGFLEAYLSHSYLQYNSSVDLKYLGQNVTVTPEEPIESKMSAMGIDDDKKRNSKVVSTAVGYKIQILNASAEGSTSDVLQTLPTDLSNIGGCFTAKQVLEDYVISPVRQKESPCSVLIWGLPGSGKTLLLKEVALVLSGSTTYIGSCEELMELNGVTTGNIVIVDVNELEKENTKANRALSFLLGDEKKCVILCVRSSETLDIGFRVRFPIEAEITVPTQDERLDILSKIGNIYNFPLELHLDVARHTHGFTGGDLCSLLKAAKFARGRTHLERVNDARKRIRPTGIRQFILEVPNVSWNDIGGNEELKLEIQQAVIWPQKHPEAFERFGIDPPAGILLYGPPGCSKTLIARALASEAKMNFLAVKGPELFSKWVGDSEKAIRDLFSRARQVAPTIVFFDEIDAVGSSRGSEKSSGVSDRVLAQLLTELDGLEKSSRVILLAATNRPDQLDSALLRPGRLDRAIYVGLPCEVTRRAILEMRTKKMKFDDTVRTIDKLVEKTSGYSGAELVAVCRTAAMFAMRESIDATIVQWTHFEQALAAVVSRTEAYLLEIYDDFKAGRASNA
# T2: GST-CDC-48.3 (N+D1), amino acids 1-441 (C. elegans, UniProt Q21222 1-441)
# T2 sequence (looked up): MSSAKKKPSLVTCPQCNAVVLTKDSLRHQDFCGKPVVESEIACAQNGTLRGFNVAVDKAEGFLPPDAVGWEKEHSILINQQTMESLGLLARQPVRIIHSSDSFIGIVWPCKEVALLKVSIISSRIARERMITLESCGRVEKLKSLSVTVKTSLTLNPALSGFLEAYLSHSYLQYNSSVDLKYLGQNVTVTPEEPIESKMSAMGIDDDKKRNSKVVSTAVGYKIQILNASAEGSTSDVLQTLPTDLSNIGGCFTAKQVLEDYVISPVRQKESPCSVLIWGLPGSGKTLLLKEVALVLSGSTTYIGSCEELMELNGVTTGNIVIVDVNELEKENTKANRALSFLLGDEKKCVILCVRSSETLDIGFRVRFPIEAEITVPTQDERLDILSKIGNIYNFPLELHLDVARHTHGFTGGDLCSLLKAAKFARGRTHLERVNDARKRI
# T3: GST-CDC-48.3 (N+D1) K285T (C. elegans, UniProt Q21222 1-441, K285T)
# T3 sequence (looked up): T2 sequence (looked up) with K285T
# B1: GST-CDC-48.3 N (amino acids 1-225) (domain or fragment, C. elegans, UniProt Q21222 1-225, looked up)
# chain: MSSAKKKPSLVTCPQCNAVVLTKDSLRHQDFCGKPVVESEIACAQNGTLRGFNVAVDKAEGFLPPDAVGWEKEHSILINQQTMESLGLLARQPVRIIHSSDSFIGIVWPCKEVALLKVSIISSRIARERMITLESCGRVEKLKSLSVTVKTSLTLNPALSGFLEAYLSHSYLQYNSSVDLKYLGQNVTVTPEEPIESKMSAMGIDDDKKRNSKVVSTAVGYKIQI
# B2: AIR-2 (C. elegans Aurora B kinase), recombinant, GST tag removed (enzyme, UniProt O01427 1-305, looked up)
# chain: MENKPPVINLPEKETVNTPQKGGKFTINDFEIGRPLGKGKFGSVYLARTKTGHFHVAIKVLFKSQLISGGVEHQLEREIEIQSHLNHPNIIKLYTYFWDAKKIYLVLEYAPGGEMYKQLTVSKRFSEPTAAKYMYEIADALSYCHRKNVIHRDIKPENLLIGSQGELKIGDFGWSVHAPSNKRQTMCGTMDYLPPEMVNGADHSDAVDLWAIGVLCYEFLVGKPPFEHEDQSKTYAAIKAARFTYPDSVKKGARDLIGRLLVVDPKARCTLEQVKEHYWIQGMMEAKIRAEKQQKIEKEASLRNH
# Legend:
# Assay in all cases: pull-down
# [1] = target: B2
# [2] = target: T1, GST-CDC-48.3 full-length (FL), amino …
# [3] = target: T2, GST-CDC-48.3 (N+D1), amino acids 1-441
# [4] = target: T3, GST-CDC-48.3 (N+D1) K285T
binding result [1],binding result [2],binding result [3],binding result [4],Binder
binds,,,,B1
,binds,binds,binds,B2
